2 substances from patent US20240189423A1 can be followed below.

The target of test [1] is tumor-associated calcium signal transducer 2 (TROP2) (UniProt P09758). In words: cell-based or functional assay.
Test [2] concerns the target human epidermal growth factor receptor 2 (HER2) (human) (UniProt P04626). As to the kind of experiment: cell-based or functional assay.

Sequence of tumor-associated calcium signal transducer 2 (TROP2) (P09758 27-323 limits assumed): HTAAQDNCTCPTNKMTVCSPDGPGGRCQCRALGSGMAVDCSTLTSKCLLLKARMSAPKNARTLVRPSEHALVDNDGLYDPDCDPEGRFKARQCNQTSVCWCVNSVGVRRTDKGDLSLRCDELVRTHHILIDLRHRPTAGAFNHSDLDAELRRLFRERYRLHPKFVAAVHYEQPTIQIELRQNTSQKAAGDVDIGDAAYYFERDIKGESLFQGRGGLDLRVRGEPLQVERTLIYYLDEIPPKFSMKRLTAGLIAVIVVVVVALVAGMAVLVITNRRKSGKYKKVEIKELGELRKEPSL

On to “CXCL12-Sacituzumab (bispecific antibody)”, for which the Dmax (%), TROP2, MCF7 in test [1] stood at 51%.
For the substance “CXCL12-Trastuzumab (bispecific antibody)”, in test [2], the IC50 of cell viability, modified MTT assay, MDA-MB-175VII cells, 5 days is 86.8 nM and the IC50 of cell viability, modified MTT assay, SK-BR-3 cells, 5 days was determined as 199 nM.
